Changes are numbered by the printed parent chain. Blank lines part the entries; values can stand above or below the binder they belong to.
What was measured:
[1] = molecular target: T1, EGFRvIII expressed on cells (CHO^EGFRvIII, F98^EGFRvIII) (UniProt P00533 25-1210); assay: cell-based or functional assay
T1 construct: whole, on cells; the vIII deletion must be applied; also called deletion mutant EGFRvIII

[2] = molecular target: EGFRvIII-Fc fusion antigen (human, UniProt P00533 25-645); assay: ELISA on coated EGFRvIII-Fc; TandAb detected with Protein L-HRP, Abs(450nm) [EGFRvIII binding]
[3] = molecular target: CD3γε recombinant antigen (UniProt P09693); assay: ELISA on coated CD3γε antigen; TandAb detected with Protein L-HRP, Abs(450nm) [CD3γε binding]
[4] = molecular target: T2, wild type EGFR expressed on cells (CHO^EGFR, F98^EGFR) (human, UniProt P00533 25-1210); assay: flow cytometry on F98^EGFR cells; scFv detected with anti-His followed by FITC-conj. goat anti-mouse IgG
T2 construct: whole, on cells; also called native EGFR; EGFRwt
Protocol: (§1) After a second washing cycle, the cells were incubated with 0.1 mL of 15 μg/mL FITC-conjugated goat anti-mouse IgG antibodies under the same conditions as before. As a control, cells were incubated with the anti-His IgG 13/45/31 followed by the FITC-conjugated goat anti-mouse IgG antibodies without scFvs. The cells were then washed again and resuspended in 0.2 mL of FACS buffer containing 2 μg/mL propidium iodide in order to exclude dead cells. The fluorescence of 1×10⁴ living cells was measured using a Beckman-Coulter FC500 MPL flow cytometer using the MXP software (Beckman-Coulter, Krefeld, Germany) or a Millipore Guava EasyCyte flow cytometer using the Incyte software (Merck Millipore, Schwalbach, Germany). Mean fluorescence intensities of the cell samples were calculated using CXP software (Beckman-Coulter, Krefeld, Germany) or Incyte software (Merck Millipore, Schwalbach, Germany).
(§2) In case of analysis with Beckman-Coulter FC500 MPL flow cytometer 0.5×10⁶ cells/staining and in case of Millipore Guava EasyCyte flow cytometer only 0.25×10⁶ cells/staining were used.

[5] = molecular target: T1, EGFRvIII expressed on cells …; assay: flow cytometry on F98^EGFRvIII cells; scFv detected with anti-His followed by FITC-conj. goat anti-mouse IgG, mean fluorescence intensity
Protocol: as §1, §2

[6] = molecular target: T1, EGFRvIII expressed on cells …; assay: flow cytometry on CHO^EGFRvIII cells; scFv detected with anti-His followed by FITC-conj. goat anti-mouse IgG, mean fluorescence intensity
Protocol: as §1, §2

[7] = molecular target: EGFRvIII-Fc fusion antigen (human) (UniProt P00533); assay: ELISA on coated EGFRvIII-Fc; TandAb detected with Protein L-HRP, Abs(450nm) [EGFRvIII binding]

Sequence of CD3γε recombinant antigen (P09693 23-116, chain 1 of 2): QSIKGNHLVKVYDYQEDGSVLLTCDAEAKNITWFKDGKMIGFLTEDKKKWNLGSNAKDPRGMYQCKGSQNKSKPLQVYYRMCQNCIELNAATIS
Sequence of CD3γε recombinant antigen (P07766 23-126, chain 2 of 2, further chain): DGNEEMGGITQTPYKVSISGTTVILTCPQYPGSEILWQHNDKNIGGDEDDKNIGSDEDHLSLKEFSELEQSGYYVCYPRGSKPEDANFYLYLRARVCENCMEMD

- EC50 (read off the curve) [2]: 0.6 nM
- EC50 (read off the curve) [3]: 7 nM
B1: EGFRvIII/CD3 TandAb with EGFRvIII binding domain ABC469, domain order (iv) VH^EGFRvIII-VL^CD3-VH^CD3-VL^EGFRvIII (bispecific antibody, part only; not given: CD3 domain and linkers, not shown: small tags and cut ends)
chain, part: EVQLVQSGAEVKKPGESLKISCKGSGYSFNSYWIGWVRQMPGKGLEWMGIIYPGDSDTRYSPSFQGQVTISADKSISTAYLQWSSLKASDTAMYYCARLGSSWTNDAFDIWGQGTLVTVSSLTQPPSYESVSVSPGQTARITCSGDTLPKQYAYWYQQKPGQAPVLVIYKDSERPSGIPERFSGSSSGTTVTLTISGVQAEDEADYYCQSVDVSGTYVVFGGGTKLTVL
- Cytotoxic potency EC50 [1]: 6.5 nM
- cytotoxicity improvement factor relative to parental TandAb [1]: 33.3 fold

- binding result [4]: no binding (tested: about 3300 nM)
- EC50 (read off the curve) [5]: ~6 nM
- EC50 (read off the curve) [6]: ~5 nM
B2: Li3G30 scFv (parental) (scFv, V domains shown)
VH: EVQLVQSGAEVKKPGESLKISCKGSGYSFTSYWIGWVRQMPGKGLEWMGIIYPGDSDTRYSPSFQGQVTISADKSISTAYLQWSSLKASDTAMYYCARLGSSWTNDAFDIWGQGTMVTVSS
VL: SYELTQPPSVSVSPGQTARITCSGDALPKQYAYWYQQKPGQAPVLVIYKDSERPSGIPERFSGSSSGTTVTLTISGVQAEDEADYYCQSADSSGTPLIVFGTGTKLTVL
notes: One-chain scFv, His-tagged; also called parental scFv; starting clone Li3G30

- EC50 (read off the curve) [7]: 0.8 nM
B3: EGFRvIII/CD3 TandAb with EGFRvIII binding domain ABC471, domain order (i) VL^CD3(v64)-VH^EGFRvIII-VL^EGFRvIII-VH^CD3(v64) (bispecific antibody, part only; not given: CD3 v64 domain and linkers, not shown: small tags and cut ends)
chain, part: EVQLVQSGAEVKKPGESLKISCKGSGYSFNSYWIGWVRQMPGKGLEWMGIIYPGDSANRYSPSFQGQVTISADKSISTAYLQWSSLKASDTAMYYCARLGSSWTNDAFDIWGQGTLVTVSSSYELTQPPSVSVSPGQTARITCSGDYLPKQYAYWYQQKPGQAPVLVIYKDTERPSGIPERFSGSSSGTTVTLTISGVQAEDEADYYCQSVDSSHPSVVFGGGTKLTVL
- Cytotoxic potency EC50 [1]: 1.5 nM
- cytotoxicity improvement factor relative to parental TandAb [1]: 18.2 fold

- EC50 (read off the curve) [7]: 0.7 nM
B4: EGFRvIII/CD3 TandAb with EGFRvIII binding domain ABC470, domain order (i) VL^CD3(v64)-VH^EGFRvIII-VL^EGFRvIII-VH^CD3(v64) (bispecific antibody, part only; not given: CD3 v64 domain and linkers, not shown: small tags and cut ends)
chain, part: B3 chain, part with A57D, N58T, Y147A, P149D, T172S, H215E, P216T, S217Y
- Cytotoxic potency EC50 [1]: 4 nM
- cytotoxicity improvement factor relative to parental TandAb [1]: 6.8 fold

- EC50 (read off the curve) [2]: 0.9 nM
B5: EGFRvIII/CD3 TandAb with EGFRvIII binding domain ABC470, domain order (iv) VH^EGFRvIII-VL^CD3-VH^CD3-VL^EGFRvIII (bispecific antibody, part only; not given: CD3 domain and linkers, not shown: small tags and cut ends)
chain, part: B3 chain, part with A57D, N58T, Y147A, P149D, T172S, H215E, P216T, S217Y
- Cytotoxic potency EC50 [1]: 3.8 nM
- cytotoxicity improvement factor relative to parental TandAb [1]: 56.9 fold

- EC50 (read off the curve) [7]: 0.8 nM
B6: EGFRvIII/CD3 TandAb with EGFRvIII binding domain ABC472, domain order (i) VL^CD3(v64)-VH^EGFRvIII-VL^EGFRvIII-VH^CD3(v64) (bispecific antibody, part only; not given: CD3 v64 domain and linkers, not shown: small tags and cut ends)
chain, part: B3 chain, part with N30G, S31Y, A57H, N58T, Y147A, H215G, P216T, S217Q
- Cytotoxic potency EC50 [1]: 4.2 nM
- cytotoxicity improvement factor relative to parental TandAb [1]: 6.5 fold

Source: patent US20160152728A1 (AFFEMED, published 2016)
